Test results: PMC3998375 (Structure (London, England : 1993), 2013)

Assays:
[1] = target: murine B7-H3 ectodomain (mB7H3), wild type (mouse) (UniProt Q8VE98); assay: SEC
[2] = target: the molecule itself; assay: SEC

Molecule | kon [1] | stoichiometry N [1] | kon [2]
murine B7-H3 ectodomain (mB7H3), wild type (from UniProt Q8VE98 34-247) (domain or fragment) | 0.000161 M⁻¹ s⁻¹ | 2 | –
murine B7-H3 ectodomain (mB7H3) I126T (domain or fragment, mouse, UniProt Q8VE98 34-247, looked up) SEDPVVALVDTDATLRCSFSPEPGFSLAQLNLIWQLTDTKQLVHSFTEGRDQGSAYSNRTALFPDLLVQGNASLRLQRVRVTDEGSYTCFVSTQDFDSAAVSLQVAAPYSKPSMTLEPNKDLRPGNMVTITCSSYQGYPEAEVFWKDGQGVPLTGNVTTSQMANERGLFDVHSVLRVVLGANGTYSCLVRNPVLQQDAHGSVTITGQPLTFPPE | – | – | 4.1e-05 M⁻¹ s⁻¹
murine B7-H3 ectodomain (mB7H3) F129A (domain or fragment, mouse, UniProt Q8VE98 34-247, looked up) SEDPVVALVDTDATLRCSFSPEPGFSLAQLNLIWQLTDTKQLVHSFTEGRDQGSAYSNRTALFPDLLVQGNASLRLQRVRVTDEGSYTCFVSIQDADSAAVSLQVAAPYSKPSMTLEPNKDLRPGNMVTITCSSYQGYPEAEVFWKDGQGVPLTGNVTTSQMANERGLFDVHSVLRVVLGANGTYSCLVRNPVLQQDAHGSVTITGQPLTFPPE | – | – | 0.000164 M⁻¹ s⁻¹
murine B7-H3 ectodomain (mB7H3) FG-loop chimera (I126Y/Q127G/D128G/F129A) (domain or fragment, mouse, UniProt Q8VE98 34-247, looked up) SEDPVVALVDTDATLRCSFSPEPGFSLAQLNLIWQLTDTKQLVHSFTEGRDQGSAYSNRTALFPDLLVQGNASLRLQRVRVTDEGSYTCFVSYGGADSAAVSLQVAAPYSKPSMTLEPNKDLRPGNMVTITCSSYQGYPEAEVFWKDGQGVPLTGNVTTSQMANERGLFDVHSVLRVVLGANGTYSCLVRNPVLQQDAHGSVTITGQPLTFPPE | – | – | 8.3e-06 M⁻¹ s⁻¹
